Reference: PMC9606830, “GhBEE3-Like gene regulated by brassinosteroids is involved in cotton drought tolerance”

How the values were obtained:
GhBZR1-His [1] = biological target: T1, GhBZR1-His (Gossypium hirsutum, UniProt A0A1B0QVW2 1-313); test: EMSA; LightShift Chemiluminescent EMSA Kit (Thermo); buffer, salt, pH and temperature not stated; settings: protein: recombinant; tags: C-terminal His (pET30a); chain copies: 2; label: biotin on both strands (text: 3'-end and 5'-end); blunt
T1 sequence: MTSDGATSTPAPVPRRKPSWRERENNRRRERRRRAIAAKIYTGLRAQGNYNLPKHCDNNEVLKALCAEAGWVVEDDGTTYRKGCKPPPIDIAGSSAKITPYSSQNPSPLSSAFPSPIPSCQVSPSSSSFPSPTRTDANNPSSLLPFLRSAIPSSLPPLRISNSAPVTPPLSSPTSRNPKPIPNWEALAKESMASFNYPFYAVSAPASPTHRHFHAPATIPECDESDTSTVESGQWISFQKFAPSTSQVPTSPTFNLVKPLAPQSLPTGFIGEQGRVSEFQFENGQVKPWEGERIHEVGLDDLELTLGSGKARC

GhBZR1-His [2] = biological target: T1, GhBZR1-His; test: competition; unlabelled competitor against biotinylated GhBEE3-Like Probe; significantly reduced the shift; LightShift Chemiluminescent EMSA Kit (Thermo); buffer, salt, pH and temperature not stated; settings: protein: recombinant; tags: C-terminal His (pET30a); chain copies: 2; label: none; blunt

B1: GhBEE3-Like Probe (dsDNA)
DNA 1: ACAATTACACGTGACATGTC
DNA 2: GACATGTCACGTGTAATTGT
binding result (GhBZR1-His [1]): binds

B2: Mutant Probe (dsDNA)
DNA 1: ACAATTAAGCGGAACATGTC
DNA 2: GACATGTTCCGCTTAATTGT
binding result (GhBZR1-His [1]): no binding

B3: Competitor Probe (dsDNA)
DNA 1: ACAATTACACGTGACATGTC
DNA 2: GACATGTCACGTGTAATTGT
binding result (GhBZR1-His [2]): binds
